Data from the RNAGym collection of RNA variant scans (doi:10.7554/elife.90254).

B1: LINE1-mini (parent)
chain: GGCAGAGCUCAACACAGCGUGGCAAAGUGGCUGUGGCUAGACUGCC

Variants of: B1
Assay: self-cleavage, relative activity (ratio to wild type); higher = more cleavage; in vitro, sequencing; the parent is a self-cleaving ribozyme

Row | Variant | self-cleavage
1 | GGCAGAGCUCAACACAGCGUGGCAAAGUGUCUGUGGCUAGAGUGCC [G30U C42G] | 0.05
2 | GGCAGAGCUCAACACAGCGUGGCAAAGUGUCUGUGGCUAGAUUGCC [G30U C42U] | 0.32
3 | GGCAGAGCUCAACACAGCGUGGCAAAGUGUCUGUGGCUAGAAUGCC [G30U C42A] | 0.12
4 | GGCAGAGCUCAACACAGCGUGGCAAAGUGUCUGUGACUAGACUGCC [G30U G36A] | 0.19
5 | GGCAGAGCUCAACACAGCGUGGCAAAGUGUCUGUGUCUAGACUGCC [G30U G36U] | 0.05
6 | GGCAGAGCUCAACACAGCGUGGCAAAGUGUCUGUGCCUAGACUGCC [G30U G36C] | 0.11
7 | GGCAGAGCUCAACACAGCGUGGCAAAGUGUCAGUGGCUAGACUGCC [G30U U32A] | 0.13
8 | GGCAGAGCUCAACACAGCGUGGCAAAGUGUCGGUGGCUAGACUGCC [G30U U32G] | 0.08
9 | GGCAGAGCUCAACACAGCGUGGCAAAGUGUCCGUGGCUAGACUGCC [G30U U32C] | 0.23
10 | GGCAGAGCUCAACACAGCGUGGCAAAGUGCCGGUGGCUAGACUGCC [G30C U32G] | 0.3
11 | GGCAGAGCUCAACACAGCGUGGCAAAGUGCCCGUGGCUAGACUGCC [G30C U32C] | 0.09
12 | GGCAGAGCUCAACACAGCGUGGCAAAGUGCCAGUGGCUAGACUGCC [G30C U32A] | 0.26
13 | GGCAGAGCUCAACACAGCGUGGCAAAGUGUCUGUGGCUAGACUGCC [G30U] | 1.62
14 | GGCAGAGCUCAACACAGCGUGGCAAAGUGCCUGUGGCUAGACUGCC [G30C] | 1.63
15 | GGCAGAGCUCAACACAGCGUGGCAAAGUGUCUGUAGCUAGACUGCC [G30U G35A] | 0.05
16 | GGCAGAGCUCAACACAGCGUGGCAAAGUGUCUGUCGCUAGACUGCC [G30U G35C] | 0.07
17 | GGCAGAGCUCAACACAGCGUGGCAAAGUGUCUGUUGCUAGACUGCC [G30U G35U] | 0.08
18 | GGCAGAGCUCAACACAGCGUGGCAAAGUGCCUGUGGCUAAACUGCC [G30C G40A] | 0.13
19 | GGCAGAGCUCAACACAGCGUGGCAAAGUGCCUGUGGCUACACUGCC [G30C G40C] | 0.18

Row | Variant | self-cleavage
20 | GGCAGAGCUCAACACAGCGUGGCAAAGUGCCUGUGGCUAUACUGCC [G30C G40U] | 0.16
21 | GGCAGAGCUCAACACAGCGUGGCAAAGUGCCUGGGGCUAGACUGCC [G30C U34G] | 0.1
22 | GGCAGAGCUCAACACAGCGUGGCAAAGUGCCUGCGGCUAGACUGCC [G30C U34C] | 0.12
23 | GGCAGAGCUCAACACAGCGUGGCAAAGUGCCUGAGGCUAGACUGCC [G30C U34A] | 0.12
24 | GGCAGAGCUCAACACAGCGUGGCAAAGUGCCUGUGGCUAGACUGCU [G30C C46U] | 1.09
25 | GGCAGAGCUCAACACAGCGUGGCAAAGUGCCUGUGGCUAGACUGCG [G30C C46G] | 0.59
26 | GGCAGAGCUCAACACAGCGUGGCAAAGUGCCUGUGGCUAGACUGCA [G30C C46A] | 0.45
27 | GGCAGAGCUCAACACAGCGUGGCAAAGUGUCUGUGGCUAGACUGAC [G30U C45A] | 0.49
28 | GGCAGAGCUCAACACAGCGUGGCAAAGUGUCUGUGGCUAGACUGGC [G30U C45G] | 0.29
29 | GGCAGAGCUCAACACAGCGUGGCAAAGUGUCUGUGGCUAGACUGUC [G30U C45U] | 1.11
30 | GGCAGAGCUCAACACAGCGUGGCAAAGUGGAUGUGGCUAGACUGCC [C31A] | 0.15
31 | GGCAGAGCUCAACACAGCGUGGCAAAGUGUCUGUGGCUAAACUGCC [G30U G40A] | 0.08
32 | GGCAGAGCUCAACACAGCGUGGCAAAGUGUCUGUGGCUAUACUGCC [G30U G40U] | 0.13
33 | GGCAGAGCUCAACACAGCGUGGCAAAGUGUCUGUGGCUACACUGCC [G30U G40C] | 0.09
34 | GGCAGAGCUCAACACAGCGUGGCAAAGUGCCUGUGGCUGGACUGCC [G30C A39G] | 0.12
35 | GGCAGAGCUCAACACAGCGUGGCAAAGUGCCUGUGGCUCGACUGCC [G30C A39C] | 0.26
36 | GGCAGAGCUCAACACAGCGUGGCAAAGUGCCUGUGGCUUGACUGCC [G30C A39U] | 2.23
37 | GGCAGAGCUCAACACAGCGUGGCAAAGUGGAUGUGGCUAGUCUGCC [C31A A41U] | 0.09
38 | GGCAGAGCUCAACACAGCGUGGCAAAGUGGAUGUGGCUAGGCUGCC [C31A A41G] | 0.08

Row | Variant | self-cleavage
39 | GGCAGAGCUCAACACAGCGUGGCAAAGUGGAUGUGGCUAGCCUGCC [C31A A41C] | 0.03
40 | GGCAGAGCUCAACACAGCGUGGCAAAGUGCCUGUGGCUAGAGUGCC [G30C C42G] | 0.04
41 | GGCAGAGCUCAACACAGCGUGGCAAAGUGCCUGUGGCUAGAUUGCC [G30C C42U] | 0.18
42 | GGCAGAGCUCAACACAGCGUGGCAAAGUGCCUGUGGCUAGAAUGCC [G30C C42A] | 0.12
43 | GGCAGAGCUCAACACAGCGUGGCAAAGUGCCUGUGGCAAGACUGCC [G30C U38A] | 0.75
44 | GGCAGAGCUCAACACAGCGUGGCAAAGUGCCUGUGGCGAGACUGCC [G30C U38G] | 0.03
45 | GGCAGAGCUCAACACAGCGUGGCAAAGUGCCUGUGGCCAGACUGCC [G30C U38C] | 0.49
46 | GGCAGAGCUCAACACAGCGUGGCAAAGUGCCUGUGGCUAGACUUCC [G30C G44U] | 0.09
47 | GGCAGAGCUCAACACAGCGUGGCAAAGUGCCUGUGGCUAGACUCCC [G30C G44C] | 0.27
48 | GGCAGAGCUCAACACAGCGUGGCAAAGUGCCUGUGGCUAGACUACC [G30C G44A] | 0.2
49 | GGCAGAGCUCAACACAGCGUGGCAAAGUGUCUGUGGCUAGACUGCA [G30U C46A] | 1.42
50 | GGCAGAGCUCAACACAGCGUGGCAAAGUGUCUGUGGCUAGACUGCG [G30U C46G] | 1.29
51 | GGCAGAGCUCAACACAGCGUGGCAAAGUGUCUGUGGCUAGACUGCU [G30U C46U] | 1.24
52 | GGCAGAGCUCAACACAGCGUGGCAAAGUGCCUGUUGCUAGACUGCC [G30C G35U] | 0.19
53 | GGCAGAGCUCAACACAGCGUGGCAAAGUGCCUGUAGCUAGACUGCC [G30C G35A] | 0.09
54 | GGCAGAGCUCAACACAGCGUGGCAAAGUGCCUGUCGCUAGACUGCC [G30C G35C] | 0.09
55 | GGCAGAGCUCAACACAGCGUGGCAAAGUGACUGUGGCCAGACUGCC [G30A U38C] | 0.64
56 | GGCAGAGCUCAACACAGCGUGGCAAAGUGACUGUGGCGAGACUGCC [G30A U38G] | 0.03
